{"source": "IntAct's records for PubMed 10602480", "parents": {"B1": {"name": "Death-associated protein kinase 3 (Rattus norvegicus (Rat)), O88764 (parent)", "chain": "MSTFRQEDVEDHYEMGEELGSGQFAIVRKCQQKGTGMEYAAKFIKKRRLPSSRRGVSREEIEREVSILREIRHPNIITLHDVFENKTDVVLILELVSGGELFDFLAEKESLTEDEATQFLKQILDGVHYLHSKRIAHFDLKPENIMLLDKHAASPRIKLIDFGIAHRIEAGSEFKNIFGTPEFVAPEIVNYEPLGLEADMWSIGVITYILLSGASPFLGETKQETLTNISAVNYDFDEEYFSSTSELAKDFIRRLLVKDPKRRMTIAQSLEHSWIKVRRREDGARKPERRRLRAARLREYSLKSHSSMPRNTSYASFERFSRVLEDVAAAEQGLRELQRGRRQCRERVCALRVAAEQREARCRDGSAGLGRDLRRLRTELGRTEALRTRAQEEARAALLGAGGLKRRLCRLENRYDALAAQVAAEVQFVRDLVRALEQERLQAECGVR", "partner": "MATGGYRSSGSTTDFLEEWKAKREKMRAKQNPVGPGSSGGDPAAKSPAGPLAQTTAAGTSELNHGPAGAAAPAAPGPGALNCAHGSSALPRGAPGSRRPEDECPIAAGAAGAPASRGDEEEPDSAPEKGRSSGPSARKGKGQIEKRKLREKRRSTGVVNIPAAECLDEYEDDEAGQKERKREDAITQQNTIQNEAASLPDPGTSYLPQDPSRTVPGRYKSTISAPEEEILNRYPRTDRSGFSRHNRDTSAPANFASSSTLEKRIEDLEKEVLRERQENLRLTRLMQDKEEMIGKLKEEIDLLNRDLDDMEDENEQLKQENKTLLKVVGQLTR"}}}
{"variants_of": "B1", "conditions": "with pawr_rat Pawr"}
{"variant": "K42A", "effect of a mutation on the interaction": "disrupting interaction"}
